{
  "source": "patent US20260027209A1",
  "target": "human Claudin-6 (human) (UniProt P56747)",
  "sequence (P56747 whole entry)": "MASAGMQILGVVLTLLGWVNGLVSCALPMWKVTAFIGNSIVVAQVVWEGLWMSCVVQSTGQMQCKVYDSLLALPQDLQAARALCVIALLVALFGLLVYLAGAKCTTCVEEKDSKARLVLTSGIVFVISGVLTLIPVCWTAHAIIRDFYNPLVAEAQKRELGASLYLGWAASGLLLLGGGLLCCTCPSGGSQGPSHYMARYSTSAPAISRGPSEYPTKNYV",
  "experiment": "flow cytometry on Dubca.huCLDN6.Luc cells against Dubca cells",
  "data": [
    {"substance": "human CLDN6 AlexaFluor 700-conjugated antibody (R&D, Cat. No. FAB3656N)", "values": [
      {"measurement": "MFI fold over untransduced Dubca cells", "result": 203, "unit": "fold"}
    ]}
  ]
}
